Source: US20120316071A1 (published 2012)
Substitutions are numbered along the chain they refer to. Names and notes keep the numbering of the source.

B1: Fab VH5-51_IGHD5-18*01>3_IGHJ4*01 G100K/G104T G24T/S28R/G35V (H:KT TRV) & V3-4_IGLJ1*01 L24A (Fab, V domains shown)
VH: EVQLVQSGAEVKKPGESLKISCKTSGYRFTSYWIVWVRQMPGKGLEWMGIIYPGDSDTRYSPSFQGQVTISADKSISTAYLQWSSLKASDTAMYYCARRKYSYTYDYFDYWGQGTLVTVSS
VL: QTVVTQEPSFSVSPGGTVTLTCGASSGSVSTSYYPSWYQQTPGQAPRTLIYSTNTRSSGVPDRFSGSILGNKAALTITGAQADDESDYYCVLYMGSGISYVFGTGTKVTVL
notes: Fab; expressed in E. coli with CH1 (Plasmid A, His6 and Flag tags) and lambda CL (Plasmid E); also called H:KT TRV & L24A
B2: Fab VH5-51_IGHD5-18*01>3_IGHJ4*01 G100K/G104T G24T/S28R/G35V (H:KT TRV) & V3-4_IGLJ1*01 S32A (Fab, V domains shown)
VH: B1 VH
VL: B1 VL with A24L, S32A
notes: Fab; expressed in E. coli with CH1 (Plasmid A, His6 and Flag tags) and lambda CL (Plasmid E); also called H:KT TRV & S32A
B3: Fab VH5-51_IGHD5-18*01>3_IGHJ4*01 G100K/G104T G24T/S28R/G35V (H:KT TRV) & V3-4_IGLJ1*01 Y93A (Fab, V domains shown)
VH: B1 VH
VL: B1 VL with A24L, Y93A
notes: Fab; expressed in E. coli with CH1 (Plasmid A, His6 and Flag tags) and lambda CL (Plasmid E); also called H:KT TRV & Y93A
B4: Fab VH5-51_IGHD5-18*01>3_IGHJ4*01 G100K/G104T G24T/S28R/G35V (H:KT TRV) & V3-4_IGLJ1*01 S96A (Fab, V domains shown)
VH: B1 VH
VL: B1 VL with A24L, S96A
notes: Fab; expressed in E. coli with CH1 (Plasmid A, His6 and Flag tags) and lambda CL (Plasmid E); also called H:KT TRV & S96A
B5: Fab VH5-51_IGHD5-18*01>3_IGHJ4*01 G100K/G104T G24T/S28R/G35V (H:KT TRV) & V3-4_IGLJ1*01 T53A (Fab, V domains shown)
VH: B1 VH
VL: B1 VL with A24L, T53A
notes: Fab; expressed in E. coli with CH1 (Plasmid A, His6 and Flag tags) and lambda CL (Plasmid E); also called H:KT TRV & T53A
B6: Fab VH5-51_IGHD5-18*01>3_IGHJ4*01 G100K/G104T G24T/S28R/G35V (H:KT TRV) & V3-4_IGLJ1*01 L92A (Fab, V domains shown)
VH: B1 VH
VL: B1 VL with A24L, L92A
notes: Fab; expressed in E. coli with CH1 (Plasmid A, His6 and Flag tags) and lambda CL (Plasmid E); also called H:KT TRV & L92A
B7: Fab VH5-51_IGHD5-18*01>3_IGHJ4*01 G100K/G104T G24T/S28R/G35V (H:KT TRV) & V3-4_IGLJ1*01 M94A (Fab, V domains shown)
VH: B1 VH
VL: B1 VL with A24L, M94A
notes: Fab; expressed in E. coli with CH1 (Plasmid A, His6 and Flag tags) and lambda CL (Plasmid E); also called H:KT TRV & M94A
B8: Fab VH5-51_IGHD5-18*01>3_IGHJ4*01 G100K/G104T G24T/S28R/G35V (H:KT TRV) & V3-4_IGLJ1*01 V91A (Fab, V domains shown)
VH: B1 VH
VL: B1 VL with A24L, V91A
notes: Fab; expressed in E. coli with CH1 (Plasmid A, His6 and Flag tags) and lambda CL (Plasmid E); also called H:KT TRV & V91A
B9: Fab VH5-51_IGHD5-18*01>3_IGHJ4*01 G100K/G104T G24T/S28R/G35V (H:KT TRV) & V3-4_IGLJ1*01 S99A (Fab, V domains shown)
VH: B1 VH
VL: B1 VL with A24L, S99A
notes: Fab; expressed in E. coli with CH1 (Plasmid A, His6 and Flag tags) and lambda CL (Plasmid E); also called H:KT TRV & S99A
B10: Fab VH5-51_IGHD5-18*01>3_IGHJ4*01 G100K/G104T G24T/S28R/G35V (H:KT TRV) & V3-4_IGLJ1*01 S28A (Fab, V domains shown)
VH: B1 VH
VL: B1 VL with A24L, S28A
notes: Fab; expressed in E. coli with CH1 (Plasmid A, His6 and Flag tags) and lambda CL (Plasmid E); also called H:KT TRV & S28A
B11: Fab VH5-51_IGHD5-18*01>3_IGHJ4*01 G100K/G104T G24T/S28R/G35V (H:KT TRV) & V3-4_IGLJ1*01 T78E (Fab, V domains shown)
VH: B1 VH
VL: B1 VL with A24L, T78E
notes: Fab; expressed in E. coli with CH1 (Plasmid A, His6 and Flag tags) and lambda CL (Plasmid E); also called H:KT TRV & T78E
B12: Fab VH5-51_IGHD5-18*01>3_IGHJ4*01 G100K/G104T G24T/S28R/G35V (H:KT TRV) & V3-4_IGLJ1*01 Y33A (Fab, V domains shown)
VH: B1 VH
VL: B1 VL with A24L, Y33A
notes: Fab; expressed in E. coli with CH1 (Plasmid A, His6 and Flag tags) and lambda CL (Plasmid E); also called H:KT TRV & Y33A
B13: Fab VH5-51_IGHD5-18*01>3_IGHJ4*01 G100K/G104T G24T/S28R/G35V (H:KT TRV) & V3-4_IGLJ1*01 S30A (Fab, V domains shown)
VH: B1 VH
VL: B1 VL with A24L, S30A
notes: Fab; expressed in E. coli with CH1 (Plasmid A, His6 and Flag tags) and lambda CL (Plasmid E); also called H:KT TRV & S30A
B14: Fab VH5-51_IGHD5-18*01>3_IGHJ4*01 G100K/G104T G24T/S28R/G35V (H:KT TRV) & V3-4_IGLJ1*01 T31A (Fab, V domains shown)
VH: B1 VH
VL: B1 VL with A24L, T31A
notes: Fab; expressed in E. coli with CH1 (Plasmid A, His6 and Flag tags) and lambda CL (Plasmid E); also called H:KT TRV & T31A
B15: Fab VH5-51_IGHD5-18*01>3_IGHJ4*01 G100K/G104T G24T/S28R/G35V (H:KT TRV) & V3-4_IGLJ1*01 S26A (Fab, V domains shown)
VH: B1 VH
VL: B1 VL with A24L, S26A
notes: Fab; expressed in E. coli with CH1 (Plasmid A, His6 and Flag tags) and lambda CL (Plasmid E); also called H:KT TRV & S26A
B16: Fab VH5-51_IGHD5-18*01>3_IGHJ4*01 G100K/G104T G24T/S28R/G35V (H:KT TRV) & V3-4_IGLJ1*01 V29A (Fab, V domains shown)
VH: B1 VH
VL: B1 VL with A24L, V29A
notes: Fab; expressed in E. coli with CH1 (Plasmid A, His6 and Flag tags) and lambda CL (Plasmid E); also called H:KT TRV & V29A
B17: Fab VH5-51_IGHD5-18*01>3_IGHJ4*01 G100K/G104T G24T/S28R/G35V (H:KT TRV) & V3-4_IGLJ1*01 S36A (Fab, V domains shown)
VH: B1 VH
VL: B1 VL with A24L, S36A
notes: Fab; expressed in E. coli with CH1 (Plasmid A, His6 and Flag tags) and lambda CL (Plasmid E); also called H:KT TRV & S36A
B18: Fab VH5-51_IGHD5-18*01>3_IGHJ4*01 G100K/G104T G24T/S28R/G35V (H:KT TRV) & V3-4_IGLJ1*01 S25A (Fab, V domains shown)
VH: B1 VH
VL: B1 VL with A24L, S25A
notes: Fab; expressed in E. coli with CH1 (Plasmid A, His6 and Flag tags) and lambda CL (Plasmid E); also called H:KT TRV & S25A
B19: Fab VH5-51_IGHD5-18*01>3_IGHJ4*01 G100K/G104T G24T/S28R/G35V (H:KT TRV) & V3-4_IGLJ1*01 Y34A (Fab, V domains shown)
VH: B1 VH
VL: B1 VL with A24L, Y34A
notes: Fab; expressed in E. coli with CH1 (Plasmid A, His6 and Flag tags) and lambda CL (Plasmid E); also called H:KT TRV & Y34A
B20: Fab VH5-51_IGHD5-18*01>3_IGHJ4*01 G100K/G104T G24T/S28R/G35V (H:KT TRV) & V3-4_IGLJ1*01 S52A (Fab, V domains shown)
VH: B1 VH
VL: B1 VL with A24L, S52A
notes: Fab; expressed in E. coli with CH1 (Plasmid A, His6 and Flag tags) and lambda CL (Plasmid E); also called H:KT TRV & S52A
B21: Fab VH5-51_IGHD5-18*01>3_IGHJ4*01 G100K/G104T G24T/S28R/G35V (H:KT TRV) & V3-4_IGLJ1*01 T78L (Fab, V domains shown)
VH: B1 VH
VL: B1 VL with A24L, T78L
notes: Fab; expressed in E. coli with CH1 (Plasmid A, His6 and Flag tags) and lambda CL (Plasmid E); also called H:KT TRV & T78L
B22: Fab VH5-51_IGHD5-18*01>3_IGHJ4*01 G100K/G104T G24T/S28R/G35V (H:KT TRV) & V3-4_IGLJ1*01 P35A (Fab, V domains shown)
VH: B1 VH
VL: B1 VL with A24L, P35A
notes: Fab; expressed in E. coli with CH1 (Plasmid A, His6 and Flag tags) and lambda CL (Plasmid E); also called H:KT TRV & P35A

What follows are binders tested against T1, Recombinant Human DLL4 (human, UniProt Q9NR61 27-524) (assay: ELISA, DLL4 coated on plate, Fab at 100 nM, absorbance at 450 nm minus blank).
T1 construct: also called delta-like protein 4; rHuman DLL4

| ELISA Signal-blank (100 nM Fab) | Binder |
| --- | --- |
| 0.244 | B1 |
| 0.502 | B2 |
| 0.185 | B3 |
| 0.436 | B4 |
| 0.532 | B5 |
| 0.186 | B6 |
| 0.277 | B7 |
| 0.606 | B8 |
| 0.3 | B9 |
| 0.478 | B10 |
| 0.217 | B11 |
| 0.301 | B12 |
| 0.344 | B13 |
| 0.552 | B14 |
| 0.395 | B15 |
| 0.394 | B16 |
| 0.38 | B17 |
| 0.483 | B18 |
| 0.085 | B19 |
| 0.574 | B20 |
| 0.347 | B21 |
| 0.236 | B22 |
